B1: LINE1-mini (parent)
chain: GGCAGAGCUCAACACAGCGUGGCAAAGUGGCUGUGGCUAGACUGCC

In the data set the parent is B1. The data set is described as follows: self-cleavage, relative activity (ratio to wild type); higher = more cleavage; in vitro, sequencing; the parent is a self-cleaving ribozyme.
Consider G1C G40U, for which the self-cleavage was found to be 0.02.
Regarding G1C G40A, the self-cleavage came to 0.03.
The result for G1C G29U reads 0.14; that for G1C G29C, 0.07; that for G1C G29A, 0.16.
With G1U A26C the figure was 0.32.
With G1U A26U the figure was 0.34; with G1U A26G, 0.31.
In the case of G1A C46U, the self-cleavage was 2.95.
With G1A C46G the figure was 2.92; with G1A C46A, 2.61; with G1A U9A, 0.34.
The result for G1A U9G reads 0.22.
With G1A U9C the figure was 0.1; with G1U C46G, 0.74.
On to G1U C46U, for which the self-cleavage was 0.43.
With G1U C46A the figure was 0.53; with G1C U32G, 0.04; with G1C U32C, 0.03.
The result for G1C U32A reads 0.02; that for G1U G29C, 0.2.
Take G1U G29U: the self-cleavage came to 0.38.
With G1U G29A the figure was 0.44.
With G1U G5A, the self-cleavage came out at 0.2.
With G1U G5C the figure was 0.04.
With G1U G5U the figure was 0.09; with G1A C37A, 0.07; with G1A C37G, 0.04.
The result for G1A C37U reads 0.08; that for G1U A16G, 0.22; that for G1U A16C, 0.08.
With G1U A16U, the self-cleavage is 0.05.
The result for G1A C31U reads 0.32; that for G1C C8U, 0.07.
Turning to G1C C8G, the self-cleavage was determined as 0.02.
The result for G1C C8A reads 0.06.
G1C A25U: the self-cleavage was found to be 0.08.
The result for G1C A25G reads 0.01; that for G1C A25C, 0.1.
The result for G1C A24G reads 0.29; that for G1C A24U, 0.2; that for G1C A24C, 0.07.
The result for G1A G21U reads 1.38; that for G1A G21C, 2.09.
With G1A G21A, the self-cleavage was determined as 1.86.
G1C C45G: the self-cleavage turned out to be 0.16.
The result for G1C C45U reads 0.15.
With G1C C45A the figure was 0.16.
G1U U9G: the self-cleavage came out at 0.03.
With G1U U9C the figure was 0.02.
The result for G1U U9A reads 0.03.
With G1C A14G the figure was 0.08.
Turning to G1C A14U, the self-cleavage amounted to 0.02.
The result for G1C A14C reads 0.02.
With G1U C3G the figure was 0.25; with G1U C3U, 0.27.
The result for G1U C3A reads 0.85; that for G1A G2A, 1.83; that for G1A G2U, 0.47.
Turning to G1A G2C, the self-cleavage came out at 0.24.
The result for G1A G27U reads 1.95.
With G1A G27A the figure was 1.81.
With G1A G27C the figure was 0.86; with G1C A11C, 0.01; with G1C A11U, 0.03.
For the variant G1C A11G, the self-cleavage amounted to 0.01.
With G1U C23A the figure was 0.36.
The result for G1U C23G reads 0.24; that for G1U C23U, 0.31.
The result for G1A G7A reads 0.51; that for G1A G7U, 0.3.
Turning to G1A G7C, the self-cleavage turned out to be 0.6.
With G1C A6U the figure was 0.14.
With G1C A6G, the self-cleavage came out at 0.02.
With G1C A6C the figure was 0.04.
The result for G1C A4U reads 0.06; that for G1C A4G, 0.07.
The result for G1C A4C reads 0.12.
Turning to G1A G19A, the self-cleavage worked out at 1.77.
The result for G1A G19U reads 0.94; that for G1A G19C, 1.28.
With G1A G44C the figure was 0.47.
The result for G1A G44A reads 0.28.
As to G1A G44U, the self-cleavage turned out to be 0.91.
With G1C G33U the figure was 0.04; with G1C G33C, 0.14; with G1C G33A, 0.03.
With G1U C15U the figure was 0.21; with G1U C15A, 0.08.
With G1U C15G, the self-cleavage was determined as 0.04.
For the variant G1C A41C, the self-cleavage amounted to 0.02.
The result for G1C A41G reads 0.02; that for G1C A41U, 0.1.
With G1U G33A the figure was 0.04; with G1U G33C, 0.03; with G1U G33U, 0.06.
The result for G1A G22C reads 1.94; that for G1A G22A, 0.94.
For the variant G1C U43A, the self-cleavage came out at 0.02.
Regarding G1C U43G, the self-cleavage was 0.13.
The result for G1C U43C reads 0.03; that for G1C U28A, 0.04.
The result for G1C U28C reads 0.02; that for G1C U28G, 0.07; that for G1A G29U, 1.1.
As to G1A G29A, the self-cleavage came out at 0.63.
Consider G1A G29C, for which the self-cleavage worked out at 0.28.
Consider G1A G40C, for which the self-cleavage worked out at 0.07.
With G1A G40A the figure was 0.11; with G1A G40U, 0.1.
On to G1U C13G, for which the self-cleavage came out at 0.13.
Turning to G1U C13A, the self-cleavage was 0.05.
The result for G1U C13U reads 0.07; that for G1U A4G, 0.25.
With G1U A4C the figure was 0.06.
The result for G1U A4U reads 0.22; that for G1C C42U, 0.04.
Turning to G1C C42G, the self-cleavage was determined as 0.01.
With G1C C42A the figure was 0.02; with G1A G35A, 0.2; with G1A G35C, 0.1.
The result for G1A G35U reads 0.17; that for G1C G35A, 0.03; that for G1C G35C, 0.02.
On to G1C G35U, for which the self-cleavage turned out to be 0.03.
The result for G1U C45G reads 0.1.
With G1U C45U the figure was 0.38; with G1U C45A, 0.26.
The result for G1C A39G reads 0.01; that for G1C A39C, 0.04; that for G1C A39U, 0.06.
G1C G19C: the self-cleavage worked out at 0.04.
Consider G1C G19U, for which the self-cleavage came out at 0.06.
With G1C G19A the figure was 0.11; with G1C C23U, 0.07.
The result for G1C C23A reads 0.16; that for G1C C23G, 0.08; that for G1A C42U, 0.16.
The result for G1A C42A reads 0.06; that for G1A C42G, 0.06; that for G1A G33A, 0.09.
Turning to G1A G33C, the self-cleavage turned out to be 0.05.
The result for G1A G33U reads 0.09; that for G1A U38A, 1.36; that for G1A U38G, 0.03.
The result for G1A U38C reads 0.84; that for G1U C8A, 0.08.
The result for G1U C8U reads 0.12; that for G1U C8G, 0.06.
On to G1U G21U, for which the self-cleavage turned out to be 0.41.
The result for G1U G21A reads 0.77; that for G1U G21C, 0.39.
With G1C G17C the figure was 0.06; with G1C G17U, 0.02; with G1C G17A, 0.02.
With G1U C18U the figure was 0.51; with G1U C18G, 0.06; with G1U C18A, 0.16.
Take G1C C15A: the self-cleavage was found to be 0.02.
Regarding G1C C15U, the self-cleavage worked out at 0.07.
With G1C C15G the figure was 0.03.
The result for G1C G22A reads 0.12; that for G1C G22C, 0.19; that for G1C G22U, 0.17.
G1C C37U: the self-cleavage was determined as 0.02.
As to G1C C37G, the self-cleavage amounted to 0.02.
With G1C C37A the figure was 0.02.

The values above are taken from the RNAGym collection of RNA variant scans (doi:10.7554/elife.90254).
